Values after ≈ are worked out from the molar mass of the structure shown. Peptide text beside a SMILES is read from it. * marks the point of attachment. Lauroyl = CCCCCCCCCCCC(=O)*
Key:
[1] = Self-assembly and TEM imaging (filament diameter); format: physicochemical; details: self-assembled in PBS pH 7.4; mean±SD (n=30)
Experimental: Self-Assembly, Co-Assembly, and TEM Imaging. For self-assembly, filler or ligand molecules were dissolved in PBS (20 mM sodium phosphate, 150 mM sodium chloride, pH 7.4) to reach a final concentration of 2.5 mM or 400 μM, respectively, and aged for 24 hours at room temperature. To construct co-assembled IFs, filler and ligand molecules were pretreated with hexafluoroisopropanol (HFIP) to eliminate any pre-existing nanostructures that could be possibly formed during the synthesis and purification process. After HFIP evaporation, filler and ligand molecules were dissolved in PBS (20 mM sodium phosphate, 150 mM sodium chloride, pH 7.4) to reach desired concentrations and aged for 24 hours at room temperature. 10 μl stock of each sample solution was then spotted on carbon film coated copper grids with 400 square mesh (Electron Microscopy Sciences, Hatfield, PA, USA) and the excess was removed with filter paper to leave a thin film of sample on the grid. After letting the sample dry for 5 minutes, 10 μl 2% uranyl acetate was added to the sample grid, and the excess was removed after 30 seconds. All samples were dried for at least three hours before imaging. Bright-field TEM imaging was performed on a FEI Tecnai 12 TWIN Transmission Electron Microscope and all TEM images were required by a SIS Megaview III wide-angle CCD camera.

[2] = CMC measurement with Nile Red; format: physicochemical; details: ligand molecules in PBS
Experimental: CMC measurement. The CMCs of the ligand molecules in PBS were determined using Nile Red, a hydrophobic dye that undergoes changes in both fluorescence intensity and emission wavelength (a blue-shift) upon partition into the hydrophobic domains of supramolecular assemblies. Nile Red was initially dissolved in acetone at 20 μM and 10 μl aliquots were loaded into several centrifuge tubes. After the acetone evaporated under room temperature. 500 μl fresh ligand solutions in PBS at various concentrations were added into the centrifuge tubes containing dry Nile Red and aged overnight for assembly. Fluorescent spectra of Nile Red were then monitored by a Fluorolog fluorometer (Jobin Yvon, Edison, NJ, USA) with fixed excitation wavelength at 560 nm; emission spectra were monitored at 580-720 nm. The ratio of the emission intensity at 635 nm (emission maximum of Nile red in a hydrophobic environment) to that at 660 nm (emission maximum of Nile red in an aqueous environment) was then plotted against the tested concentrations to obtain a transition curve, and the CMC value was determined by the intersection of the two fitting lines.

[3] = molecular target: T1, pure mAb1 (Homo sapiens, UniProt P01857); assay: mAb precipitation experiment with co-assembled IFs; details: 40 μM mAb1, 2.5 mM filler
T1 construct: host or cells: CHO is stated only for the clarified harvest
T1 sequence (P01857 1-330 isoform P01857-1): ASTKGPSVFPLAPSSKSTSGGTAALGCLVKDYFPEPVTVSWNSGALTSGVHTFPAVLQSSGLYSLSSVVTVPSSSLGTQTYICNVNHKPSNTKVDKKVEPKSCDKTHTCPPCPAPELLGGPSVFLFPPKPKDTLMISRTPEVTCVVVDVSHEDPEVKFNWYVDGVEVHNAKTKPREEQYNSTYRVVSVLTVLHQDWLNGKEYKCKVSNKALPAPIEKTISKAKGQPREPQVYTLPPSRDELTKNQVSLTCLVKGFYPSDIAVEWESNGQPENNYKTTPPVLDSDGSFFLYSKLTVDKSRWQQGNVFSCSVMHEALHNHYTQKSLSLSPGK

[4] = molecular target: T2, mAb1 in clarified CHO cell culture harvest (Homo sapiens, UniProt P01857); assay: Purification of mAb1 from clarified cell culture harvest; details: sequential precipitation, no salt
T2 construct: host or cells: Chinese hamster ovary (CHO) cells; harvest clarified by depth filtration
T2 sequence (P01857 1-330 isoform P01857-1): as above
Experimental: Purification of mAb1 from Clarified Cell Culture Harvest. mAb1 at clarified bulk state were incubated with optimized IFs (100 μL) at a concentration of 40 μM or 80 μM for 30 minutes. Same procedures were performed to precipitate mAb1 and obtain the centrifuged pellets. The pellets were then resuspended in […] (400 μL, 40 mM sodium acetate. pH 3.7) and transferred to a dialysis tube (Pur-A-Lyzer Maxi, 50 kDa cut-off molecular weight. Sigma-Aldrich. St. Louis, MO. USA). The resuspended solution was then dialyzed against 40 mM sodium acetate (1 L) at pH 3.7 for 24 hours with dialysis buffer replaced three times. The protein, filler, and ligand concentrations were determined by ProA-HPLC and RP-UPLC.

[5] = molecular target: T3, mAb1 (Homo sapiens, UniProt P01857); assay: Turbidity of mAb1-IF mixture (absorbance at 350 nm); details: 40 μM mAb1, 2.5 mM filler, 250 μM O16, absorbance at 350 nm
T3 construct: host or cells: CHO is stated only for the clarified harvest
T3 sequence (P01857 1-330 isoform P01857-1): as above

[6] = molecular target: T1, pure mAb1; assay: Sequential precipitation of high mAb titers using lyophilized IFs; details: lyophilized IFs (2.5 mM filler, 400 μM O16); for mAb precipitation yield after six precipitation steps: no salt
Experimental: Sequential Precipitation of High mAb Titers Using Lyophilized IFs. Six lyophilized IF stock powders (IF4-IF9) were prepared such that upon dissolution in 100 μL, the concentrations of the filler and O16 would be 2.5 mM and 400 μM, respectively. Lyophilized IF powders were prepared one day before the precipitation experiment. The IFs were allowed to co-assemble in water for 24 hours prior to lyophilization. Pure mAb1 from concentrated stock solutions of either (146 μM, 21 g/L) or (215 μM, 31 g/L) was added to the lyophilized IF4. After a 1-hour incubation, the samples were centrifuged at 15000 rpm for 15 minutes. Following centrifugation, the volume of supernatant was measured and fresh PBS was added until a final supernatant volume of 100 μL was reached. The 100 μL supernatant following the first precipitation step was then added to the next lyophilized IF stock powder (IF5) and allowed to incubate for another hour. This process of incubation, centrifugation, and supernatant transfer was repeated until all six lyophilized IFs (IF4-IF9) had been used for mAb precipitation. The supernatants after the first, third, and sixth precipitation steps were analyzed using ProA-HPLC to measure the cumulative amount of mAbs remaining throughout the precipitation process.

[7] = molecular target: T1, pure mAb1; assay: Sequential precipitation and mAb elution using IF solutions
Experimental: Sequential Precipitation and mAb Elution Using IF Solutions. Three IF stock solutions. IF1 (2.5 mM filler, 250 μM O16). IF2 (2.5 mM filler, 750 μM O16), and IF3 (2.5 mM filler. 200 μM O16), were prepared one day before the precipitation experiment. Pure mAb1 from a concentrated solution (448 μM, 64.5 g/L) was added into 100 uL IF1 and 100 uL IF2 to reach a desired final concentration of 40 μM and 80 μM, respectively. After a 4-hour incubation, the samples were then centrifuged at 15000 rpm for 15 minutes and the supernatant was transferred to 100 uL IF3 for another 4-hour incubation and subsequent centrifugation. 200 μL PBS and 400 μL elution buffer (40 mM sodium acetate. pH 3.7) were then used to wash and resuspend the precipitates from the two precipitation steps. The supernatant from each precipitation step, wash step, and elution step were analyzed by ProA-HPLC (POROS™ A 20 μm Column, Stainless Steel, 2.1×30 mm, 0.1 mL) to determine mAb concentration.

[8] = molecular target: T1, pure mAb1; assay: mAb precipitation experiment with co-assembled IFs; details: for mAb precipitation yield at optimal O16 concentration: 2.5 mM filler
Experimental: mAb Precipitation Experiment. IF stock solutions at desired filler and ligand concentrations were prepared one day before the precipitation experiment. In experimental groups, pure mAb1 from a concentrated solution (448 μM, 64.5 g/L) was then added into 100 μL IF solutions to reach a desired final concentration and incubated for 30 minutes at room temperature. The solution was then centrifuged at 15000 rpm for 15 minutes. For the 1M salt group, ammonium sulfate was added to the mAb-IF mixtures to reach a final concentration of 1M and incubated for another 30 minutes before centrifugation. The supernatant was taken out and analyzed by ProA-HPLC (POROS™ A 20 μm Column, Stainless Steel, 2.1×30 mm, 0.1 mL) to determine the protein concentrations. The precipitated amount of each species was calculated by subtracting the amount in the supernatant from the amount added. The precipitation yield was calculated by dividing […].

[9] = Solubility limit of filler molecule in PBS; format: physicochemical; details: in PBS (pH 7.4)

## O12: ligand molecule C12-VVKK[Linker]Z33, linker OEG12
[1]
  diameter of self-assembled filamentous structures (TEM): 13.6±1.2 nm
[2]
  CMC: 8.5 µM

## P2000: ligand molecule C12-VVKK[Linker]Z33, linker PEG2000
[1]
  diameter of self-assembled filamentous structures (TEM): 19.3±2.0 nm
[2]
  CMC: 8.1 µM

## O16: ligand molecule C12-VVKK[Linker]Z33, linker OEG16
[3]; 250 μM O16, binding time 2 hours
  mAb precipitation yield: 88%
[3]; 250 μM O16, binding time 24 hours
  mAb precipitation yield: 92%
[4]; 40 μM mAb1 CB
  mAb1 precipitation yield from clarified cell culture harvest: more than 86%
[4]; 80 μM mAb1 CB
  mAb1 precipitation yield from clarified cell culture harvest: > 90%
[5]
  time to turbidity plateau: ≤ 30 min
[1]
  diameter of self-assembled filamentous structures (TEM): 14.9±1.3 nm
[6]; 21 mg/mL pure mAb
  mAb precipitation yield after six precipitation steps: 96%
[6]; 31 mg/ml pure mAb
  mAb precipitation yield after six precipitation steps: 98%
[6]; 21 or 31 mg/mL mAb
  mAb precipitation yield after first precipitation step: around 20%
  mAb precipitation yield after three precipitation steps: ~80%
[7]; 40 μM pure mAb1, IFs with 250 μM O16, no salt
  mAb1 precipitated in first precipitation: More than 82%
[7]; 40 μM pure mAb1, elution buffer 40 mM sodium acetate pH 3.7
  elution yield: ~88%
[7]; 40 μM pure mAb1, second step IFs with 200 μM O16, no salt
  final precipitation yield after two sequential precipitations: greater than 97%
[7]; 80 μM pure mAb1, IFs with 750 μM O16, no salt
  mAb1 precipitated in first precipitation: More than 82%
[7]; 80 μM pure mAb1, elution buffer 40 mM sodium acetate pH 3.7
  elution yield: ~88%
[7]; 80 μM pure mAb1, second step IFs with 200 μM O16, no salt
  final precipitation yield after two sequential precipitations: greater than 97%
[2]
  CMC: 10.5 µM
[8]; 40 μM mAb1, 2.5 mM filler, 250 μM O16, binding time 30 minutes
  mAb precipitation yield: 83%
[8]; 40 μM mAb1, no salt
  mAb precipitation yield at optimal O16 concentration: around 85%
[8]; 40 μM mAb1, optimal IFs (2.5 mM filler, 250 μM O16), 1 M salt
  mAb precipitation yield: More than 99%
[8]; 40 μM mAb1, optimal IFs (2.5 mM filler, 250 μM O16), no salt
  mAb precipitation yield: 88%
[8]; 80 μM mAb1, no salt
  mAb precipitation yield at optimal O16 concentration: around 85%
[8]; 133 μM mAb1, no salt
  mAb precipitation yield at optimal O16 concentration: about 65%
[8]; 100 μL mAb1 at 10 μM and 20 μM with 100 μL IFs
  O16 concentration giving the best mAb precipitation yield: 200 µM

## O36: ligand molecule C12-VVKK[Linker]Z33, linker OEG36
[1]
  diameter of self-assembled filamentous structures (TEM): 18.5±1.8 nm
[2]
  CMC: 9.1 µM
[8]; 20 μM mAb1, 2.5 mM filler, 100 μM ligand
  yield discrepancy between 1M salt and no salt groups: less than 10%
[8]; all conditions (20 and 40 μM mAb1, 1 M salt or no salt)
  mAb precipitation yield, ranking among ligands: best mAb precipitation yields in all conditions

## CCCCCCCCCCCC(=O)N[C@H](C(=O)N[C@H](C(=O)N[C@@H](CCC(=O)O)C(=O)N[C@@H](CCC(=O)O)C(=O)O)C(C)C)C(C)C [C12-VVEE] (Lauroyl-VVEE-OH; N-terminus and C-terminus assumed)
[9]
  solubility: 2500 µM (≈ 1640 µg/mL)
